Experimental data from US20140193415A1.
Where a chain is given by its changes, count along the chain named.

B1: <IGF-1R> F13B5 Fab fragment (affinity-matured <IGF-1R> HUMAB-Clone 18) (Fab, V domains shown)
VH: QVELVESGGGVVQPGRSQRLSCAASGFTFSSYGMHWVRQAPGKGLEWVAIIWFDGSSTYYADSVRGRFTISRDNSKNTLYLQMNSLRAEDTAVYFCARELGRRYFDLWGRGTLVSVSS
VL: EIVLTQSPATLSLSPGERATLSCRASQSVSSYLAWYQQKPGQAPRLLIYQASKRATGIPARFSGSGSGTDFTLTISSLEPEDFAVYYCQQRSKYPPWTFGQGTKVESK
B2: <IGF-1R> L39D7 Fab fragment (affinity-matured <IGF-1R> HUMAB-Clone 18) (Fab, V domains shown)
VH: B1 VH
VL: B1 VL with S31K, Y32Q, Q50N
B3: <IGF-1R> L37F7 Fab fragment (affinity-matured <IGF-1R> HUMAB-Clone 18) (Fab, V domains shown)
VH: B1 VH
VL: B1 VL with Y32Q, Q50K, S52T, K53N
B4: <IGF-1R> L31D7 Fab fragment (affinity-matured <IGF-1R> HUMAB-Clone 18) (Fab, V domains shown)
VH: B1 VH
VL: B1 VL with S30I, S31Q, Y32S, Q50R, Y94W
B5: <IGF-1R> L31D11 Fab fragment (affinity-matured <IGF-1R> HUMAB-Clone 18) (Fab, V domains shown)
VH: B1 VH
VL: B1 VL with Q27R, S30Y, Y32S, Q50K, K53S, Y94W

How the values were obtained:
[1] = target: human IGF-1R (soluble, analyte in SPR) (human) (UniProt P08069); assay: SPR (ProteOn XPR36), 25 C, Fab captured by anti-Fab, IGF-1R as analyte
[2] = target: human IGF-1R (soluble, analyte in SPR) (human) (UniProt P08069); assay: SPR (ProteOn XPR36), 25 C, Fab captured by anti-Fab; ratio against parental Ak18

Binder | Kd [1] | koff [1] | kon [1] | x-fold increase of binding affinity (=KD (unmodified AK18)/KD (CDR-modified)) [2]
B1 | 1.47 nM | 0.00025 s⁻¹ | 170000 M⁻¹ s⁻¹ | 12.4 fold
B2 | 0.769 nM | 0.00027 s⁻¹ | 351000 M⁻¹ s⁻¹ | 23.8 fold
B3 | 1.02 nM | 0.000237 s⁻¹ | 232000 M⁻¹ s⁻¹ | 17.9 fold
B4 | 1.03 nM | 0.000538 s⁻¹ | 523000 M⁻¹ s⁻¹ | 17.8 fold
B5 | 0.269 nM | 0.000153 s⁻¹ | 571000 M⁻¹ s⁻¹ | 68 fold
